Experimental data from patent publication US20250297232A1, “BACTERIAL MYELOPEROXIDASE-CATALASE AND APPLICATIONS THEREOF” (priority 2022, published 2025).

What was measured:
[1] = Steady-state kinetics by stopped-flow, NaCl (Tau-NHCl formation, 253 nm); assay type: biochemical; conditions: NaCl range (k2), 300 nM of enzyme and 79 μM of H2O2
Experimental: (§1) pH- and temperature-dependent studies were carried out for each substrate.
(§2) These temperatures were reached by using a stopped-flow coupled to a cryostat.
(§3) For temperature and pH measurements, RbMPO was set at the same concentration as in the determination of steady state kinetics parameters.

[2] = system: E. coli strain ATCC 25922; assay: Microbicidal activity: bacterial growth kinetics in a microplate (A620nm, 16 h); assay type: cell-based; conditions: for inhibition of bacterial growth: glucose 14 mM, pH 7.4, 37° C.
Experimental: The microbicidal activity of RbMPO towards the E. coli strain ATCC 25922 was evaluated by two independent experiments.
E. coli 25922 were grown on TSB-agar for 16 h at 37° C. One colony is grown in 10 ml of TSB medium under stirring at 190 rpm at 37° C. The optical density (OD) of the bacterial preculture was measured at 620 nm in a spectrophotometer (Ultrospec 10, Biochrom). 25 ml of TSB medium was inoculated to obtain an OD of approximately 0.09. When the OD was between 1 and 2, a dilution in 10 mL of TSB medium was performed to obtain 2×10^6 CFU/ml. Bactericidal tests were performed in 96-well microplates under a final volume of 100 μl with 10^6 CFU/ml. The plate cover was treated with 0.05% TritonX−100 and 20% ethanol to prevent condensation and thus avoid misreading of the wells by the instrument. The solution was allowed to act on the lid for 10 minutes, then removed and dried under a class II biological safety cabinet. Each tested condition was performed at least in triplicate and each experiment was repeated at least 3 times. The kinetics was set to 16 h with a measurement at 620 nm every 15 minutes in a microplate reader (Wallac Victor 2,1420 Multilabel counter) thermostated at 37° C. [shaking duration: 10.0s; shaking speed: fast; shaking diameter: 0.5 mm; shaking type: orbital; measurement time: 0.2s; numbers of replicates: 60; time between replicates: 900 s; label: P620]. […] 5 mM bleach was used as a positive control and bacteria alone was used as a negative control. • By counting colonies on Petri dishes

[3] = Steady-state kinetics by stopped-flow, H2O2 range at fixed (pseudo)-halogen ions; assay type: biochemical; conditions: wt RbMPO 267 nM
Experimental: For the halides Cl^− and Br^−, the ranges were not performed at halide saturation but at 500 and 100 mM respectively (data not shown).

[4] = Stability of myeloperoxidase activity of wt RbMPO on storage in different buffers; assay type: physicochemical; conditions: stored in PBS buffer pH 6.6 at 37° C., up to 60 minutes
Experimental: The enzyme was concentrated at […] for the 4° C. storage condition and at 132.2 μM for the 37° C. storage condition. The MPO activity of the enzyme was assessed at different time points by a standard activity test.
The MPO activity of the enzyme was assessed at different time points by a standard activity test. To do so, the concentrated enzyme was diluted and contacted with H2O2, NaCl and APF.
The value obtained at TO is defined as 100% of the enzymatic (MPO) activity at the temperature tested and all the other activities are calculated from this TO timepoint.

E. coli ATCC 25922 = assay: Microbicidal activity: counting colonies on Petri dishes; assay type: cell-based; conditions: 1 h contact with 1.10^6 CFU/mL, 25 mM SCN^−, pH7.4; enzyme alone: wt RbMPO 300 nM or GOxaspniger 25 nM
Experimental: 10 mL of TSB medium (pH7.4) was inoculated with a freshly obtained colony of E. coli ATCC 25922, and the culture was incubated at 37° C. and 190 rpm overnight. In the morning, 25 mL of TSB medium were inoculated with the previous day's pre-culture to obtain an OD620 nm of 0.07 at TO. When the bacterial culture reached the exponential phase, the bacterial solution was diluted 10-fold in TSB in order to reach 1.10^6 CFU/mL. This dilution was then contacted with the enzyme solution for 1 hour (in a final volume of 1 mL). Further dilutions were then made (10^−1, 10^−4, 10−5, 10^−6). 100 μL of these solutions were spread on a Petri dish containing TSB agar medium and placed at 37° C. overnight. The next day, the surviving colonies were counted and the number of CFU/mL was calculated using the formula below: […]

[5] = Pre-steady state: return of wt RbMPO to its native state, Cl^− range; assay type: biochemical; conditions: H2O2: 20 μM
Experimental: (§4) Kinetic parameters under pre-steady-state condition were performed with a Biologic SFM400 stopped-flow at 412 nm, 37° C. and with 50 mM sodium phosphate buffer at pH7.5. […] An exponential linear fit was applied to each kinetic using the following formula: […]
(§5) The return of the enzyme to its native state was studied by the impact of increasing concentrations of (pseudo)-halides substrates on compound I (FIG. 9B). […] It is the time difference (s) between the two characteristic steps that allowed the calculation of the values of the Vreturn(μM^−1.s^−1) values: […]

[6] = Heme reconstitution of apo wt and mutated RbMPOs (tryptophan fluorescence quenching); assay type: binding; conditions: heme reconstitution of apo enzyme; 1 μM enzyme, 50 mM sodium phosphate pH7.5, 25° C.
Experimental: Sample dilutions were performed in a 50 mM pH7.5 sodium phosphate buffer.

[7] = Pre-steady state: return of wt RbMPO to its native state, I^− range; assay type: biochemical; conditions: from pre-steady state return to native state with I^−, SCN^−, Br^−, Cl^−
Experimental: as §4, §5

[8] = Steady-state kinetics by stopped-flow, NaBr (Tau-NHBr formation, 289 nm); assay type: biochemical; conditions: Br^− 500 mM, 267 nM RbMPO, H2O2 79 μM
Experimental: as §1, §2, §3

[9] = Steady-state kinetics by stopped-flow, NaSCN (hypothiocyanate formation, 240 nm); assay type: biochemical; conditions: for kss: SCN^− 5 mM, 267 nM RbMPO, H2O2 79 μM
Experimental: as §1, §2, §3

B1: wt RbMPO: novel bacterial heme peroxidase (myeloperoxidase-catalase) of about 78 KDa from Rhodopirellula baltica, SEQ ID NO: 1, produced recombinantly in E. coli (protein, listed as Rhodopirellula baltica)
chain: MLFWSKRTRKHPGRKRRRLRSEQLESRQLLAADFGGYRHNIYDAEDVNDDGRVSAIDALLVINAMTSETSRDENVFTDVNGDGRRSALDALRVINRIERGDVFPIDTSGDEDLNTLLPEMPSEVRSIDGSGNNPNDHLWGSVGQRLIRMAPAAYGDGISTLAGANRPSAREVSNVLSAMNTSQVLNDRGLSAFVYVWGQFIDHDLGLTESDEHGEAIDISVPEGDLWFDPMGSGEAVIPMTRTPIADGTGTSVGNPAQQFNQITAFIDGSMVYGSDAATAERLRTFAGGRLAISDNGLLPMDESGMVIAGDVRASENVGLTAIQTLFVREHNRLADEIFAADPEATDEEIYQRARLVVASLIQSITYNEFLPALLGQRAMDSYRGYDASVNPGIANEFSTAAFRLGHSTLRDEVGFMSNDGRESKDEMELKDAFFHASMLEETGIDSLLKFDASVQAQEIDLAVVDSLRNFLFGPPGAGGLDLVAMNIQRGRDHGLSDYNTTRQAYGLDRVETFDQITGDVELQQKLASLYGTVDNIDLWVGLMAEDHQHDASVGELTGLIIADQFQRTRDGDRFFYKNVLTDSEVESIERSTLADLIERNTSVDGLQENVFFMQVELRGRVILASSIPPNTMPSEVREEEIRGVSGMAIELIDASGKLVDSTVSDQHGNYRFRALSETGDYQVRLSESGEAMDVLVAHGAERIRGLDFIVLA
[1]
  kss/[Cl^−]: 5.46 ± 0.67 M⁻¹ s⁻¹
[2]; 10 nM GOxaspniger, 25 mM SCN^−, pH 7.4
  excess of wt RbMPO over GOxaspniger required for 100% bactericidal effect: at least 15 times
[2]; 150 nM wt RbMPO and 10 nM GOxaspniger (15:1 ratio), 25 mM SCN^−
  inhibition of bacterial growth: 100%
[2]; 300 nM wt RbMPO and 25 nM GOxaspniger (12:1 ratio), 25 mM SCN^−
  inhibition of bacterial growth: 100%
[2]; 300 nM wt RbMPO and 30 nM GOxaspniger (10:1 ratio), 25 mM SCN^−
  inhibition of bacterial growth: 100%
[2]; 25 mM SCN (pH 7.4), between 10 and 30 nM GOxaspniger, from 300 nM wt RbMPO
  bactericidal effect: 100%
[3]; Br (100 mM)
  KMapp: 0.23 ± 0.21 mM
[3]; SCN (5 mM)
  KMapp: 0.12 ± 0.04 mM
[4]
  fall of myeloperoxidase activity: 50%
E. coli ATCC 25922
  surviving bacteria: 13,850,000±4,454,773 CFU/mL
[5]
  kreturn/K1/2: 5169 ± 4872 M⁻¹ s⁻¹
[6]
  k2: 1430 ± 74.4 M⁻¹ s⁻¹
[7]
  substrate specificity: I^−>SCN^−>Br^− Cl^−
[8]; 37° C., pH 4
  kss: 0 ± 0 s⁻¹
[8]; 37° C., pH 5
  kss: 1.5 ± 0.004 s⁻¹
[8]; 37° C., pH 6
  kss: 14.5 ± 0.03 s⁻¹
[8]; 37° C., pH 7
  kss: 11.0 ± 0.02 s⁻¹
[8]; 37° C., pH 8
  kss: 4.8 ± 0.01 s⁻¹
[8]; 37° C., pH 9
  kss: 1.3 ± 0.004 s⁻¹
[8]; 37° C., pH 10
  kss: 0.8 ± 0.007 s⁻¹
[8]; pH 7.5, 10° C.
  kss: 9.5 ± 0.01 s⁻¹
[8]; pH 7.5, 20° C.
  kss: 23.4 ± 0.02 s⁻¹
[8]; pH 7.5, 30° C.
  kss: 24.8 ± 0.02 s⁻¹
[8]; pH 7.5, 37° C.
  kss: 19.5 ± 0.01 s⁻¹
[8]; pH 7.5, 40° C.
  kss: 29.1 ± 0.02 s⁻¹
[8]; pH 7.5, 50° C.
  kss: 21.1 ± 0.01 s⁻¹
[8]; pH 7.5, 60° C.
  kss: 37.8 ± 0.03 s⁻¹
[9]; 37° C., pH 4
  kss: 0.7 ± 0.04 s⁻¹
[9]; 37° C., pH 5
  kss: 5.4 ± 0.02 s⁻¹
[9]; 37° C., pH 6
  kss: 27.0 ± 0.06 s⁻¹
[9]; 37° C., pH 7
  kss: 42.8 ± 0.13 s⁻¹
[9]; 37° C., pH 8
  kss: 20.4 ± 0.03 s⁻¹
[9]; 37° C., pH 9
  kss: 3.1 ± 0.02 s⁻¹
[9]; 37° C., pH 10
  kss: 0 ± 0 s⁻¹
[9]; pH 7.5, 10° C.
  kss: 5.0 ± 0.01 s⁻¹
[9]; pH 7.5, 20° C.
  kss: 37.6 ± 0.10 s⁻¹
[9]; pH 7.5, 30° C.
  kss: 56.3 ± 0.10 s⁻¹
[9]; pH 7.5, 37° C.
  kss: 63.2 ± 0.11 s⁻¹
[9]; pH 7.5, 40° C.
  kss: 55.5 ± 0.14 s⁻¹
[9]; pH 7.5, 50° C.
  kss: 56.5 ± 0.14 s⁻¹
[9]; pH 7.5, 60° C.
  kss: 67.2 ± 0.22 s⁻¹
[9]; from steady-state NaSCN, NaBr and NaCl ranges
  substrate specificity: SCN^−>Br^−>Cl^−
